Drawing on publication PMC2593743 (Nature structural & molecular biology, 2008), this text covers Kd for one molecule.

The target in assay [1] is T1, VPS4A MIT domain, recombinant (His6-VPS4 MIT) (UniProt Q9UN37 2-80).
T1 sequence (looked up): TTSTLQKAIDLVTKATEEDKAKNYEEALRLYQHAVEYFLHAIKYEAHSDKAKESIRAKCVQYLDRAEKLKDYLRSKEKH
In words: SPR.

For assay [2], the target named is T2, human spastin MIT domain (residues 112-195), purified (human, UniProt Q9UBP0-1 112-195).
T2 sequence (looked up): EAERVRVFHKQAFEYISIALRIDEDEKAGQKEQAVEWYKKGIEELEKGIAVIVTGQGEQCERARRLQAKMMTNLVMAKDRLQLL
As to the kind of experiment: SPR. For orientation: SPR reads the build-up and loss of mass on a sensor chip optically.

B1: polyhistidine-tagged CHMP1B-CTR (residues 126-199), wild type (domain or fragment, human, UniProt Q7LBR1 126-199, looked up)
chain: DVQTQQMEDTMSSTTTLTTPQNQVDMLLQEMADEAGLDLNMELPQGQTGSVGTSVASAEQDELSQRLARLRDQV
For orientation: Kd means the constant that tells how readily two partners part at equilibrium. On to B1, for which the figures for the Kd in assay [1] and in assay [2] were 33 µM and 12 µM, respectively.
